Experimental data reported in paper PMC4263667, “Nanobody Mediated Inhibition of Attachment of F18 Fimbriae Expressing Escherichia coli” (PLoS ONE, 2014).

T1: FedF_(15–165), N-terminal lectin domain of the F18 fimbrial tip adhesin FedF (Escherichia coli (F18-fimbriated …, NT647 on surface exposed amine groups (in the MST only)))
T1 construct: also called FedF lectin domain
T1 chain: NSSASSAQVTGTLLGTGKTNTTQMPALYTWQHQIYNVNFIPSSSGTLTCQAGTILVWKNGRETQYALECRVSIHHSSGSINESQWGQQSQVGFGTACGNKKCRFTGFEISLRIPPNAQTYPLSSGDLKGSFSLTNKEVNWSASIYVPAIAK

B1: NbFedF7 (VHH)
VHH: QVQLQESGGGSVQAGGSLRLSCTASGYTYRKYCMGWFRQAPGKEREGVACINSGGGTSYYADSVKGRFTISQDNAKDTVFLRMNSLKPEDTAIYYCALSSNSVCPPGHVAWYNDWGQGTQVTVSS
notes: source: E. coli WK6, periplasmic extract, purified (Ni-NTA); not shown: His6, C-terminal, kept
B2: NbFedF9 (VHH)
VHH: QVQLQESGGGSVQAGGSLRLSCAASGYTYSSNCMAWFRQVPGKEREGVASINTRGGITYYADSVKGRFTISRDNAKNTVSLQMNSLKPEDTATYYCAAVREATYSDNRCSVRSYTYDYWGQGTQVTVSS
notes: as for B1
B3: NbFedF6 (VHH)
VHH: QVQLQESGGGSVQAGGSLRLSCAASGYTSGRDSMGWFRQAPGKEREGVACIDTSGIVNYADSVKGRFTISQDSAKKTLYLEMNSLKPEDTALYSCATGPFVYGRGCLGQAFYSYWGQGTQVTVSS
notes: as for B1
B4: NbFedF12 (VHH)
VHH: QVQLQESGGGSVQAGGSLRLSCAASGNTKSYWMGWFRQAPGKEREGVAVIAGGGAFTYYAESVKGRFTISQDNTKDTVYLAMNSLKPEDTALYYCALRTLNNGGIFLLNSPSSFHYWGQGTQVTVSS
notes: source: E. coli WK6, periplasmic extract, purified (Ni-NTA)

Molecular target: T1, FedF_(15–165), N-terminal lectin domain …
Assay: MST
Conditions: both partners purified

Binder | Kd
B1 | 5.25 nM
B2 | 1.58 nM
B3 | 3.57 nM
B4 | 29 nM
